{"source": "paper PMC5067699", "key": {"[1]": {"biological_target": "paired-helical filament tau (PHF-tau) from AD brain (human (endogenous in AD patient cortex)) (UniProt P10636)", "sequence (P10636 whole entry)": "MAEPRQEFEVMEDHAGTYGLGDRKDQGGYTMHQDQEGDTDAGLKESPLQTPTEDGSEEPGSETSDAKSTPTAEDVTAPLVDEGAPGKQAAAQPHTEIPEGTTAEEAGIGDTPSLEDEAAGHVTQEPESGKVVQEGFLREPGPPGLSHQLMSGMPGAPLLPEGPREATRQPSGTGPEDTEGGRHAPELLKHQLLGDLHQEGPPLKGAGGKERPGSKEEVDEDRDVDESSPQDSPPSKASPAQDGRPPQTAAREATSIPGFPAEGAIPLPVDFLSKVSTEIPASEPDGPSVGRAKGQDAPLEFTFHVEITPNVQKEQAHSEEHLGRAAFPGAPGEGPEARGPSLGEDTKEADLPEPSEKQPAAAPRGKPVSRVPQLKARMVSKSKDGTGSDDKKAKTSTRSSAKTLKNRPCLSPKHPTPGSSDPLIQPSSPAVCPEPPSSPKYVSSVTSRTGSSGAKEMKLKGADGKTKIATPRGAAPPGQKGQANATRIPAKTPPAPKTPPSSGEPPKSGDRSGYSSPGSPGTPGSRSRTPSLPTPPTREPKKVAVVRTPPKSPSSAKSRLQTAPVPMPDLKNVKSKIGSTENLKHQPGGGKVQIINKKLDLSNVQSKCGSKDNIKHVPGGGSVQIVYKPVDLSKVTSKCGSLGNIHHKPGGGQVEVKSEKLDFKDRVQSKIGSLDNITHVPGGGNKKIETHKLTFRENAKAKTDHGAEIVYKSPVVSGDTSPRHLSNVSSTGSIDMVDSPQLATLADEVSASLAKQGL", "test": "SPR"}, "[2]": {"biological_target": "Peptide-7 (tau 195-214, pS199/pS202)", "test": "SPR"}}}
{"substance": "AT8 Fab (from UniProt P01857 1-103; P01834 1-107)", "values": [{"measurement": "Kd", "setting": "[1]", "value": 0.021, "unit": "µM"}, {"measurement": "Kd", "setting": "[2]", "value": "> 1000", "unit": "µM"}]}
